# Measurements published in article PMC9784018, “Rational Strategy for Designing Peptidomimetic Small Molecules Based on Cyclic Peptides Targeting Protein–Protein Interaction between CTLA-4 and B7-1” (Pharmaceuticals, 2022).
# Read-outs that look alike come from different tables or passages of the source. Positions of bridges follow the written chain, without caps; N, C: chain ends. MBP = not defined here
# Experiments:
# Format in all cases: binding
# CTLA-4 [1] = biological target: T1, CTLA-4 (Homo sapiens, UniProt P16410); experiment: E. coli lysate ELISA of MBP–peptide fusion proteins; conditions: alanine mutants of C4m-310044 as MBP–peptide–His-tag fusion protein, compared with C4m-310044
# T1 sequence (P16410 36-223): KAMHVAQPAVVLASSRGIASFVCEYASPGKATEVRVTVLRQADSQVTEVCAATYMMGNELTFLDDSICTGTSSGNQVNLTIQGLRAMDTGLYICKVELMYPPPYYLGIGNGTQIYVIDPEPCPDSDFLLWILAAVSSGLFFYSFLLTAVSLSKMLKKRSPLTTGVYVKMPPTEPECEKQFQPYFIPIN
# Source text: We generated 14 alanine mutants as an MBP–peptide–His-tag fusion protein (Supplementary Figure S1A), and systematically investigated the effects of alanine substitution by lysate ELISA (Supplementary Figure S1B). […] These eight residues were regarded as important for the interaction between C4m-310044 peptide and CTLA-4. Of the eight residues, six (H2, P3, L5, S9, H11, and F12) were highly conserved even after affinity maturation of C4-302 (Figure 4). These six amino acids were essential residues for binding with CTLA-4. […] Neither of these two residues is involved in binding, but they seem to contribute to affinity. […]
# (B) 14 variants shown in (A) were expressed as the MBP-peptide fusion protein. The binding activity of each on CTLA-4 was evaluated using lysate ELISA. The BL21(DE3) E. coli cells transformed with each alanine scanning mutant were grown in 100 μL of 2xYT/50 μg/mL ampicillin at 37 °C until OD600 of 0.5–0.8 was reached. After IPTG (0.5 mM) was added, the broth was incubated at 25 °C, with shaking overnight. The cell broth was lysed using lysis buffer (5 mg/mL lysozyme (FUJIFILM Wako) in PBS, 50% BugBuster ® (v/v) (Merck Millipore) at RT for 2 h, with shaking. The lysate was blocked with TBS/0.05% Tween-20/12.5% skim milk by incubating at RT for 0.5 h, shaking, then added to CTLA-4-immobilized wells on 384-plate and incubated at RT for 1.5 h. After washing and incubation with anti-FLAG M2 ®-peroxidase antibody (1:10,000; Sigma Aldrich) at RT for 1 h, the absorbance at 450 nm/ 650 nm was read with a microplate reader through the reaction with 1x TMB substrate solution and 2N
# [2] = biological target: T2, interaction between CTLA-4 and B7-1 (Homo sapiens, UniProt P16410); experiment: CTLA-4:B7-1[Biotinylated] Inhibitor Screening Assay (BPS Bioscience kit)
# T2 construct: purchased BPS Bioscience Inc
# T2 sequence (P16410 36-161 limits assumed): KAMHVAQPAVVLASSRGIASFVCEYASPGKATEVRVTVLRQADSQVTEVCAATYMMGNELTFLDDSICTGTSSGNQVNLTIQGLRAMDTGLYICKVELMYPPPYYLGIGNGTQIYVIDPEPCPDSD
# Experimental: We prepared the C4m-3127 cyclic peptide using chemical synthesis and examined its properties. First, the inhibitory activity was tested using a kit (CTLA-4:B7-1[Biotinylated] Inhibitor Screening Assay, BPS Bioscience Inc.) (Figure 5A). […] In a sequence of C4m-3127, the GG linker behind C-terminal Cys had mutated into Glu and Arg.
# A cyclic peptide with a low EC50 value was synthesized by adding glycine to the N-terminus at Toray Research Center.
# (B) Flow cytometry affinity analysis.
# CTLA-4 [3] = biological target: T1, CTLA-4; experiment: ELISA-based determination of EC50 value of MBP–peptide–His-tag fusion constructs
# Experimental: Peptides with binding specificity for CTLA-4 were overexpressed as fusion proteins with MBP at the N-terminus and His-tag at the C-terminus. After BL21(DE3) E. coli cells were transformed, the fusion constructs were grown in 200 mL of 2xYT/[…] ampicillin at 37 °C until an OD600 of 0.5–0.8 was reached. Then, IPTG (0.5 mM) was added. The broth was incubated at 25 °C with shaking overnight. After the cell broth was centrifuged, the pellet was resuspended in 20 mM Tris-HCl pH 7.5/500 mM NaCl and sonicated (Bioruptor UCD-250, Sonicbio Co. Ltd., Kanagawa, Japan). The sample was centrifuged, then the supernatant was purified on Ni Sepharose^TM 6FF (Cytiva, Tokyo, Japan). The purified sample was buffer exchanged to PBS by dialysis and quantified using a kit (BCA Protein Assay Kit, Thermo Fisher Scientific, Waltham, MA, USA).
# CTLA-4 (5 μg/mL) was coated onto a NUNC® Maxisoap^TM 384 well plate and incubated at 4 °C overnight. After the wells were washed twice with TBS/0.05% Tween-20, they were blocked with 100 μL of TBS/0.05% Tween-20/5% skim milk by incubating at RT for 1 h with shaking. […] The absorbance was measured at 450 nm/650 nm with a microplate reader (Infinite F200, Tecan Japan Co., Ltd., Kanagawa, Japan). The absorbance versus the concentration of MBP–peptide–His-tag fusion was found. The midpoint concentration was determined as the half-maximal effective concentration (EC50) value.
# [4] = inhibition of CTLA-4:B7-1 interaction, luminescence, four-parameter logistic fit, read-out: IC50
Molecule,absorbance in lysate ELISA (CTLA-4 [1]),further results
V8A: alanine mutant of C4m-310044 as MBP–peptide–His-tag fusion protein ({MBP}-CLHPFLPIASHHFCGR-{His‑tag}; disulfide 1-14 (inferred); reading uncertain),same level of absorbance with C4m-310044,
"CC(C)[C@H]1ON(C(=O)OCc2ccccc2)[C@H]2CN(CCc3ccccc3)C(=O)[C@H](CCCNC(=N)N)N2C1=O [PGF00452, Benzyl (3R,6S,9aS)-6-(3-guanidinopropyl)-3-isopropyl-4,7-dioxo-8-phenethylhexahydropyrazino [2,1-c][1,2,4]oxadiazine-1(6H)-carboxylate]",,"IC50 [2, 4]: 147 µM"
I7A: alanine mutant of C4m-310044 as MBP–peptide–His-tag fusion protein ({MBP}-CLHPFLPAVSHHFCGR-{His‑tag}; disulfide 1-14 (inferred); reading uncertain),marked decrease in absorbance,
L1A: alanine mutant of C4m-310044 as MBP–peptide–His-tag fusion protein ({MBP}-CAHPFLPIVSHHFCGR-{His‑tag}; disulfide 1-14 (inferred); reading uncertain),same level of absorbance with C4m-310044,
P6A: alanine mutant of C4m-310044 as MBP–peptide–His-tag fusion protein ({MBP}-CLHPFLAIVSHHFCGR-{His‑tag}; disulfide 1-14 (inferred); reading uncertain),marked decrease in absorbance,
L5A: alanine mutant of C4m-310044 as MBP–peptide–His-tag fusion protein ({MBP}-CLHPFAPIVSHHFCGR-{His‑tag}; disulfide 1-14 (inferred); reading uncertain),marked decrease in absorbance,
F12A: alanine mutant of C4m-310044 as MBP–peptide–His-tag fusion protein ({MBP}-CLHPFLPIVSHHACGR-{His‑tag}; disulfide 1-14 (inferred); reading uncertain),marked decrease in absorbance,
"N=C(N)NCCC[C@H]1C(=O)N(CCc2ccccc2)C[C@@H]2N(C(=O)OCc3ccccc3)O[C@H](CC3CCCCC3)C(=O)N21 [PGF00478, Benzyl (3R,6S,9aS)-3-(cyclohexylmethyl)-6-(3-guanidinopropyl)-4,7-dioxo-8-phenethylhexahydropyrazino [2,1-c][1,2,4]oxadiazine-1(6H)-carboxylate]",,"IC50 [2, 4]: 80 µM; IC50 ([2]; values printed in Figure 7, read-out: IC50, CTLA-4/B7-1 interaction inhibitory activity): 60 µM"
"C4m-3127: best binder clone from affinity maturation of C4-302, random loop MHPFLPIVSHHF, expressed as MBP fusion protein ({MBP}-CMHPFLPIVSHHFCER-{His‑tag}; disulfide 1-14 (inferred); not fully specified; reading uncertain)",,"affinity relative to C4-302 (CTLA-4 [3]; MBP fusion protein, times greater affinity than C4-302): 50 times; EC50 (CTLA-4 [3]; purified MBP–peptide–His-tag fusion protein, ELISA on immobilized CTLA-4): 0.0747 µM; IC50 ([2]; inhibition of CTLA-4:B7-1 interaction, luminescence, four-parameter logistic fit, listed as MBP–C4m-3127 peptide–His-tag fusion protein, read-out: IC50): 1.36 µM; IC50 [2, 4]: 11.5 µM"
"CC(C)[C@H]1ON(C(=O)OCc2ccccc2)[C@H]2CN(CCc3ccccc3)C(=O)[C@H](Cc3c[nH]cn3)N2C1=O [PGF00432, Benzyl (3R,6S,9aS)-6-((1H-imidazol-4-yl)methyl)-3-isopropyl-4,7-dioxo-8-phenethylhexahydropyrazino [2,1-c][1,2,4]oxadiazine-1(6H)-carboxylate]",,"IC50 [2, 4]: 294 µM"
H11A: alanine mutant of C4m-310044 as MBP–peptide–His-tag fusion protein ({MBP}-CLHPFLPIVSHAFCGR-{His‑tag}; disulfide 1-14 (inferred); reading uncertain),marked decrease in absorbance,

# Second part, led by results:
absorbance in lysate ELISA (CTLA-4 [1]),Molecule,further results
marked decrease in absorbance,S9A: alanine mutant of C4m-310044 as MBP–peptide–His-tag fusion protein ({MBP}-CLHPFLPIVAHHFCGR-{His‑tag}; disulfide 1-14 (inferred); reading uncertain),
marked decrease in absorbance,H2A: alanine mutant of C4m-310044 as MBP–peptide–His-tag fusion protein ({MBP}-CLAPFLPIVSHHFCGR-{His‑tag}; disulfide 1-14 (inferred); reading uncertain),
marked decrease in absorbance,P3A: alanine mutant of C4m-310044 as MBP–peptide–His-tag fusion protein ({MBP}-CLHAFLPIVSHHFCGR-{His‑tag}; disulfide 1-14 (inferred); reading uncertain),
same level of absorbance with C4m-310044,G(+1)A: alanine mutant of C4m-310044 as MBP–peptide–His-tag fusion protein ({MBP}-CLHPFLPIVSHHFCAR-{His‑tag}; disulfide 1-14 (inferred); reading uncertain),
same level of absorbance with C4m-310044,H10A: alanine mutant of C4m-310044 as MBP–peptide–His-tag fusion protein ({MBP}-CLHPFLPIVSAHFCGR-{His‑tag}; disulfide 1-14 (inferred); reading uncertain),
same level of absorbance with C4m-310044,F4A: alanine mutant of C4m-310044 as MBP–peptide–His-tag fusion protein ({MBP}-CLHPALPIVSHHFCGR-{His‑tag}; disulfide 1-14 (inferred); reading uncertain),
same level of absorbance with C4m-310044,R(+2)A: alanine mutant of C4m-310044 as MBP–peptide–His-tag fusion protein ({MBP}-CLHPFLPIVSHHFCGA-{His‑tag}; disulfide 1-14 (inferred); reading uncertain),
